Assay: soluble on expression in E. coli; label from the status in PepcDB or PDB records

Sequence	soluble on expression in E. coli
MGSDKIHHHHHHMSLDRVDWPHATFSTPVKRIFDTQTTLDFQSSLAIHRIKYHLHKYTTLISHCSDPDPHATASSIAMVNGLMGVLDKLAHLIDETPPLPGPRRYGNLACREWHHKLDERLPQWLQEMLPSEYHEVVPELQYYLGNSFGSSTRLDYGTGHELSFMATVAALDMLGMFPHMRGADVFLLFNKYYTIMRRLILTYTLEPAGSHGVWGLDDHFHLVYILGSSQWQLLDAQAPLQPREILDKSLVREYKDTNFYCQGINFINEVKMGPFEEHSPILYDIAVTVPRWSKVCKGLLKMYSVEVLKKFPVVQHFWFGTGFFPWVNIQNGTDLPVFEEKEEESIEQANAGSPGREQTSTRFPTSTSMPPPGVPPSGNNINYLLSHQNQSHRNQTSFSRDRLRR	not soluble
MGSDKIHHHHHHMSLKKQIPIIFENTHYFIVNKPPGIPSQPPDCRTWGRTHPNLDPTPLLERFKAIYYSHREVELCRTVHRLDHCVTGGMLIAKTKDGSVKFSRFLQKGGNNGYKLQRKYVAIVESSGRFNKPNNYEIKYGPKYNFLISHGGREITKFKEVDENCIVLQLVTGKKHQIRNHVSQILNQPILNDKRHGSTVNFPELFNDQIALHSACIITKIGLQTKTHLIPMEHNNTGQLWSRKYVNEEGEFTLPIKEVLLENWDQ	not soluble
MGSDKIHHHHHHMSLSYKEMHQTLMEELRLYHYPVAVKFFFDDEELATFKEKAEFYVPVKPMTFCQWELAARMKGQTVLATREDLGCSNALVSFGWKDIDDNEIKSHMKYVRSIEQAEKFVRSKPRLDMGSVKAIAVGPLGDAIVAPSVVHFYCDNMQSYHLAVDYMAAMDQHPLRTNVTMNSSACGGTVFSFLEKTANMLPACSGSYNAGKTERGEINFMIPGEHIEATVERLLERKRNLGSSAITRPGDGFPGADVCKNCPLIIFKKEK	not soluble
MGSDKIHHHHHHMSNNHKDSTINLYNHTASDWIRGEPSSLSDFTARPSVLELCEPVSGLRVVDIGCGEGYCSRELHRRGAAQVYGIDLSQGMIEAAKLQEVEHPLSISYEVGCATNLKRFDDSEIDLVVAVFLFNYLTISQTQECMAEVARILRPGGRFVFSVPHPSFPYMREAAYPFYFQVEGAGYFSNRDQQFPGRIWKRDGSWLNVQLIHKTLEDYFNALRIAGFNTMPILQELRVTSEHIAVDKSFFSPLLDQPLHLALQILR	not soluble
MGSDKIHHHHHHMSNNKCITVIGGVYIERYAWPHWDELYGSGGRALSVLQSLGCATKLYSCLNKDSANILQARAGIYKTSFEICSSLKESYRPIKFHYLHGLSTPQISAITTEFAQQNEIIEDNILVFGMLEGNPTISGNKVVYDPQNPISPKDFSENGSTANELAIVLNTNEAYKLIKNRNLSLDEIAYELIKNKAKVVIIKQGVRGVNIYQKLNDRYIKKDSVPCYFTKNVWKIGSGDCFSAHFAYQWIYEGKTPTEAAELASKATAYYCETRGYPSFEEFTNWKNRVQPITHRHSEKKVTVYLAGPFFTLSQIWLINETRRLLSEMGLIVFSPYHEIGTGDAIMVVPKDIDGINNSDIIFAIFDGKDSGTIFEIGYATAKNKPVIVYNENEKSEDLKMMEGTDCIVIKDYVSAIYRTLWESQKL	not soluble
MGSDKIHHHHHHMSNTPIELKGSSFTLSVVHLHEAEPKVIHQALEDKIAQAPAFLKHAPVVLNVSALEDPVNWSAMHKAVSATGLRVIGVSGCKDAQLKAEIEKMGLPILTEGKEKAPRPAPTPQAPAQNTTPVTKTRLIDTPVRSGQRIYAPQCDLIVTSHVSAGAELIADGNIHVYGMMRGRALAGASGDRETQIFCTNLMAELVSIAGEYWLSDQIPAEFYGKAARLQLVENALTVQPLN	not soluble
MGSDKIHHHHHHMSNVISVENLGKKYLISHQGREPYTALRDVLTDGARAFYRRLFSPGTSQADAQAEEFWALKDVSFEVKQGDRIGIIGRNGAGKSTLLKILSRITEPTEGRVRIRGRVASLLEVGTGFHPELTGRENIFLNGAILGMNRAEIARKFDEIVAFAEIEKFLDTPVKRYSSGMYVRLAFAVAAHLEPEILIVDEVLAVGDAQFQNKCLGKMEDVSTKEGRTVLFVSHNMGAIDRLCTRAVLLERGRVRLADFTKPVIQMYLDKAKNAISAWSCSTSIPDFDGIFFESISIVNKDRKIAEVLPSNEPFSITLVVNATASLKGVQIAIRITNEQGIPILTTTNCDKAGKLQEISRGRYRYTVSLPASFLPPGYYTLIVASFVPGEKLFDGVEDKLGFCIDDMGSLATLMKDGRLGVVTPLMPWDEVRL	not soluble
MGSDKIHHHHHHMSPEPNGDAVSIILETEGPMTAAPKTVRSVERTLQILELMNRAAVVRVQYLAEQIGLPAPTVVRLLETLVAAGYVRKIGRQAGYCVTEKVAALGAGHHGLPQVFDVAREAAEDLTRRTLWPTALATLDVDALVIRFSTIPMSPLSHYQSTINRRMTLLDYAHGRAYLGFCPTEERQHLVALLQQTAGSVEEARAIGERAQSVVALTRASGFGERTGNIQPETHSLALPLRMGAKLVGTLGITYFAKAKVDVSALKSDLRAAAEACTSGTAYRAPASSG	not soluble
MGSDKIHHHHHHMSQAIPSSRVGVKINEWYKMIRQFSVPDAEILKAEVEQDIQQMEEDQDLLIYYSLMCFRHQLMLDYLEPGKTYGNRPTVTELLETIETPQKKLTGLLKYYSLFFRGMYEFDQKEYVEAIGYYREAEKELPFVSDDIEKAEFHFKVAEAYYHMKQTHVSMYHILQALDIYQNHPLYSIRTIQSLFVIAGNYDDFKHYDKALPHLEAALELAMDIQNDRFIAISLLNIANSYDRSGDDQMAVEHFQKAAKVSREKVPDLLPKVLFGLSWTLCKAGQTQKAFQFIEEGLDHITARSHKFYKELFLFLQAVYKETVDERKIHDLLSYFEKKNLHAYIEACARSAAAVFESSCHFEQAAAFYRKVLKAQEDILKGRVFICLLRKKVMMCLAVTLVFGSMSFPTLTNSGGFKESTDRNTTYIDHSPYKLSDQKKALS	not soluble
MGSDKIHHHHHHMSQFEQDAHLKQQSDRALSDHELQADHTRQKTHELPAHFDFQQAGKQVLSIERDGLAQLDQYIDDNFTLACKNIFHCKGKVVVMGMGKSGHIGCKIAATFASTGTPAFFVHPGEASHGDLGMVTPHDIVIAISNSGESHEILSLIPVLKRQKVFLICMTSAPESTMGKAADIHLCVHVPQEACPLGLAPTTSTTATLVMGDALAVALLQARGFTAEDFALSHPGGALGRKLLLRVSDIMHSGDEIPHVPHDASLRDALVEITRKNLGMTVICEADMKIQGIFTDGDLRRIFDMNIDLNSARIADVMTAGGIRVAPQTLAVDALNLMQSRHITSVLVAENDRLVGIVHMHDMLRAGVV	not soluble
MGSDKIHHHHHHMSQHVLIAGGGIVGCLTAMELVSRGCRVTIVERNNIASQTSGESSWAGTGIMFPLLPWMYSDHVNTLTHYGASLYPDICARLFKETGIDPQMLDSGFLLLPPFDREAALTWCARYQVKAEDTKAAGFGVQSPNGQDALWLPDVKQVRPPCLMHALRTWLENHHVRLLERTELMPLSPGTSRLTAWATTSGELLEADRFIVTSGAWSFELLKEVASKLQIKPMRGQILLYKPEHNPRAVIFREDFYLVPRRDGYLLAGSTLEDVGFDPSVTDTVRDAIRAKAAALMPELADLPILKHWSGLRPGTPENLPIISPHPGIENLYLNTGHFRYGLTMGPASASLAAALVCGETPWTDPTPFSLPQ	not soluble
MGSDKIHHHHHHMSQIPVAEKLVGALSSGLAVLRYLAGMPTPVGVTRVARDLELNSSTCFNLLKTLVHEGLVTFDERTKTYTIGIGLVELAKGALDQASFARLLRPQLESIAQQHKVTATLWERTRNERVVLVDLADNPAAMRVHMSIGQRLPMYLAALGRCMAAYSELSADELRTRIESFRWENAPSFEEYYAEVQDVKERGYAVDNGNYVKGVTTVSAPVIDANKRAVMAISAVSFSAQLNRAAIRALGEDLGARAIEASRAISGRVRAA	not soluble
MGSDKIHHHHHHMSQRENPQNSSQDVADLLGGAFAGHTMQRLRTPDGKYRYSYVSSGVQASFGLDPEALMQLQDVDHSWLHPADRSLFIAALEQSAAALTRLDEEVRVSLDDGTFKWVRSIGNPRRMRDGTVIWDGVALDVTDRHEASEALERTLTQVRQNETSEGRFSYIAASDVLDRLSSLRAAVEQLDLSVPTAAHVHAVFQKFERGLFAARDLLDDTALDETRPTDHEPHKDISATLTPRQQDILGHVSRGATNRDIARAMDISEGTVKLHISAILKRTGAQNRTEAALAWTSSNGTPRR	not soluble
MGSDKIHHHHHHMSRAHVDHRDLVRFAEERVNLPKEKADEFRAQARRLREKLEGYLAEHPDFALKKMLLSGSLAKGTALRSLNDIDVAVYISGSDAPHDLQALLNYLAEKLRKAFPNFSPEQVQPQTYSVTVNFRGTGLNVDVVPVLYAGLPDWRGNLISQDDGSFLETSIPLHLECARKRKQAQPTHFAQVVRLIKYWARRMKQEHDGFRFKSFMIEMILAKLTDNGTDLSDYPEALQSFFTYVAESNLSERIVFEDYYQASTVAPSADRVQIIDPINASNNVARLYTAQNAAAIVDAALDAGDAIDAALKAPTKELTVHYWQKVFGSSFQG	not soluble
MGSDKIHHHHHHMSRDLPPLNALRAFESTARFGSVSQAAEQLSVTHGAVSRQLKVLEEHLGVSLFSKDGRGLKLTDAGIRLRDASADAFDRLRSVCAELSKGSVDAPFVLGCSGSLLARWFIPRLSRLNAELPDLRLHLSAGEGDLDPRRPGLDALLVFAEPPWPADMQVFELASERIGPVLSPRFARFESMRDAPANALLEESLLQTTSRPQAWPSWAQQNGIDPDALRYGQGFEHLYYLLEAAVAGLGIAIAPEPLVIDDLKAGRLAAPWGFSETPAQLALWVPRRAADGRARQLAQWLKNELKRSGDPIRN	not soluble
MGSDKIHHHHHHMSSDSRDLARSATAWPFQEARALLDERLKGKAPDKGYVLFETGYGPSGLPHIGTFGEVARTTMVRRAFSLLAPEIPTRLFAFSDDMDGLRKVPDNIPNKEMVAKHLGKPLTRIPDPFGTHESFGHHNNARLCSFLDTFGFEYEFQSATDWYKSGRFDAALLGVLKHYDEVINVVLPTLGDERRATYSPFLPVCPDTGIVLQVPVVERNVEAGTIVYKREDGKLIETPVTGGACKLQWKADWGMRWVALGVDYEMSGKDLIPSVQLSTRIATILGGRAPLNLTYELFLDDQGQKISKSKGNGLAVEDWLKYAPQESLALFMYQKPKTAKRLYFDVIPRAVDEYLAYLGKFPSEEPGKKLDNPVWHIHGGKPPAEDAHLSFNILMNLVSVCHSDDPAVIWGFIKRYAPGAAPETAPILNGLVGYAIAYFKDFVKPNMKYRKATPDEVEAFTALKDGLLALPADASVDDIQNLVYAIGKRPCFGELKAWFKACYEVLLGNDQGPRMGSFIKLFGIAETIALLDKAIAGEDM	not soluble
MGSDKIHHHHHHMSSICQGTWDCQNCPKAVDNAIAHIIHPRGYHQPARKCEENFILFLIRGEVLVNSQEYAGTMLRAGEFILQAIGSKFEMLAMTECECIYYRFIQPELFCDFRFNHIMKEVSSPLIYSPLKIIPELKYFLDGSKSYLSESKVCRDLLSLKRKELAFVLGYYYSDYDLASLVHPLSKYTSTFQYFILQNYKKVKTVEELAQLGGYTVSTLRRIFNNVFHEPVYEWMQARRKEGILDELLNTNNSISEICYKYGFESLPHFSNFCKKFFGASPRMLRTNKKTI	not soluble
MGSDKIHHHHHHMSSQTTALNSGVHAKKADIFCQDEARVDWHSKALWVLREKRDRAAASLPEWEQLRQLGSEMKLHTLTHLGEYLETFEKNCQANGIVVHWAKDGAEHNQIVHNILAKHQVKKLVKSKSMLTEECHLNPYLESKGIEVIDTDLGERIIQLAKQPPSHIVVPAIHLKKEEVGDLFHDKLGTEAGASDPLYLTRAARAHLREQFLSADAAMTGVNMAIADKGAVVVCTNEGNADMGANLPKLQLHSMGIDKIVPDLDSAAILLRTLARNATGQPITTYSSFYRGPQDGGEMHVIIVDNGRTDMLQDKILAESLKCIRCGGCLNTCPVYRRSGGYSYNYTIPGPIGIAVGAQADDTHSIPWACTLCGSCSYVCPTKVPLDKIIHHHRRLKAKAGKLPYGKRNYMPLVGNFMASETMLNCSMSVARTALRILPGSLLKPFSGAWGKYRELPVAPKSSFEAWFNKNRGQ	not soluble
